Literature values in PMC10382592.

Biological target: Cys23 (UniProt position 23, FIKPTCPYCRR)

Substance: Glutaredoxin-1 (GLRX, thioltransferase) (Homo sapiens (inferred from the title of ref 11, 'Thiotransferase in human red blood cells'; the sentence itself refers to mammalian GLRX))
- pKa: approximately 3.5
